# According to PMC4104448:
# pKd: −log10 of the molar value.
# Target: Biotinylated human CI-MPR domains I-XV (residues 41Q-G2293) (human) (UniProt P11717)
# Experiment: SPR; equilibrium binding; about 1,000 RU of biotinylated ligand on a streptavidin-coupled CM5 chip, LIMP-2 as analyte; Biacore T100, 25 °C, 10 mM HEPES pH 7.5, 150 mM NaCl, 0.005% Tween 20; one-site saturation binding model
# Chain of Biotinylated human CI-MPR domains I-XV (residues 41Q-G2293) (human) (P11717 41-2293): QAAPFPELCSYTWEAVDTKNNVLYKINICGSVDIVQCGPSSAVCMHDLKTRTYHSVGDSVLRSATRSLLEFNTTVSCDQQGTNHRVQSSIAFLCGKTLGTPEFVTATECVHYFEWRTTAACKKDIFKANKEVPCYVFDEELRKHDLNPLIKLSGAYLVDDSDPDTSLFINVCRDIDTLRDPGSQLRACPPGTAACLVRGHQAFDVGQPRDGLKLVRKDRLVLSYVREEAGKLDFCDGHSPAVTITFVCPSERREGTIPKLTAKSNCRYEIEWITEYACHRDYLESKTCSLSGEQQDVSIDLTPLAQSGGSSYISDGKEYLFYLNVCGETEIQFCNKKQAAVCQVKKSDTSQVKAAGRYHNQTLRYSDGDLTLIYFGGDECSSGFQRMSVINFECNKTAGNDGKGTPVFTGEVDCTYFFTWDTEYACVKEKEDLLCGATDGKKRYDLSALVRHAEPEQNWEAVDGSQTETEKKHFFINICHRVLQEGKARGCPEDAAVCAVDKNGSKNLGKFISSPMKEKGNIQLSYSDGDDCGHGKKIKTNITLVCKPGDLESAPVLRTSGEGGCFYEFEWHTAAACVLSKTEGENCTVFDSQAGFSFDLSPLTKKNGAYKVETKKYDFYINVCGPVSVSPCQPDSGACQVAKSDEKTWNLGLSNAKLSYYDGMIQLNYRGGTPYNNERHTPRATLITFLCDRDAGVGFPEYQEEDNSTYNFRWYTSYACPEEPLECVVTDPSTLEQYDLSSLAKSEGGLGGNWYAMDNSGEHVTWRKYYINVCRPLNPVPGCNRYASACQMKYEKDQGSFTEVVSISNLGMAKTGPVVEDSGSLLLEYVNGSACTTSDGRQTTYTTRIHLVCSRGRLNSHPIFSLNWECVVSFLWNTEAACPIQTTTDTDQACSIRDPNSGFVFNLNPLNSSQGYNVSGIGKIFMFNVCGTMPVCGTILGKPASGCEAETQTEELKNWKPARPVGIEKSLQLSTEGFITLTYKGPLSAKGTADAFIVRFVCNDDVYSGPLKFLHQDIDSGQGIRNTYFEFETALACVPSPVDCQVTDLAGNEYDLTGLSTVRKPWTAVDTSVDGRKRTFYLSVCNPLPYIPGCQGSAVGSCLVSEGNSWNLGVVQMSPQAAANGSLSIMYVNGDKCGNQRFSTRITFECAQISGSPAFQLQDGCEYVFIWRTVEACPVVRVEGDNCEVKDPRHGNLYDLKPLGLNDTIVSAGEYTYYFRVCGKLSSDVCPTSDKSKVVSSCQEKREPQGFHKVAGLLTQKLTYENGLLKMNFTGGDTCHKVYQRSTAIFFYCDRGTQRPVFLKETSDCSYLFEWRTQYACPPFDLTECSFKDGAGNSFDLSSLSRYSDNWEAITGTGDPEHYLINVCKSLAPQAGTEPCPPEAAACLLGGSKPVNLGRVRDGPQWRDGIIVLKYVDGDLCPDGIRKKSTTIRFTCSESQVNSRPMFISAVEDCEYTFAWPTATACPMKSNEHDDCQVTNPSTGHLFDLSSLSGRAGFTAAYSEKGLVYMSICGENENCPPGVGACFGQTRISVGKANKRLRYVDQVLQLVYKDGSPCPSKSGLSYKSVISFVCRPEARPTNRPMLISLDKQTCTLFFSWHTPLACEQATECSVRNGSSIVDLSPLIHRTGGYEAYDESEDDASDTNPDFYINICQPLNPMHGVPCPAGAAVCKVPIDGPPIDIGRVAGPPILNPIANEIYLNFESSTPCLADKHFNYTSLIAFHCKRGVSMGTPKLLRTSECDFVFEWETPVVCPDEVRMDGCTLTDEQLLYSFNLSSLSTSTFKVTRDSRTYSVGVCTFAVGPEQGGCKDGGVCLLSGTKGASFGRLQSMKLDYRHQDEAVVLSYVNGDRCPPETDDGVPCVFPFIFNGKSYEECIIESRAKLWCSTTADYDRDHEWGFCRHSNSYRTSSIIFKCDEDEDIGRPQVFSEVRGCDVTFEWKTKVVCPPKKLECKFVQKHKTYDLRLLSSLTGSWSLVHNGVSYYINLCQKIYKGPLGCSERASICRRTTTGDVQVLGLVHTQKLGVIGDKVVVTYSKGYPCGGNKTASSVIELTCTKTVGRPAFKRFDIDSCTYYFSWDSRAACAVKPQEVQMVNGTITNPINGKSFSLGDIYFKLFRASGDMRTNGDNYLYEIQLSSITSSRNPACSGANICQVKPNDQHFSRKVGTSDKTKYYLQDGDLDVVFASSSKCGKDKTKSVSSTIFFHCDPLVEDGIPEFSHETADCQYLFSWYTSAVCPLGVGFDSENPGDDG
row,pKd,Substance
1,5.66,"Human LIMP-2 luminal domain (residues 28-431) produced from HEK293S (GnTI-) cells, with limited glycosylation (from UniProt Q14108 28-431) (domain or fragment)"
2,6.01,"Human LIMP-2 luminal domain (residues 28-431) produced from HEK293T cells, with full glycosylation (from UniProt Q14108 28-431) (domain or fragment)"
